“And” between values parts separate entries of the source, which are not always exact repeats. Equal entries are not always repeated.
B1: AnxA2 ΔR1-HA (deletion of aa 37-108) (other)
chain: MSTVHEILCKLSLEGDHSTPPSAYGSVKAYTNFDAEYDASELKASMKGLGTDEDSLIEIICSRTNQELQEINRVYKEMYKTDLEKDIISDTSGDFRKLMVALAKGRRAEDGSVIDYELIDQDARDLYDAGVKRKGTDVPKWISIMTERSVPHLQKVFDRYKSYSPYDMLESIRKEVKGDLENAFLNLVQCIQNKPLYFADRLYDSMKGKGTRDKVLIRIMVSRSEVDMLKIRSEFKRKYGKSLYYYIQQDTKGDYQKALLYLCGGDDYPYDVPDYA
notes: also called Δ37-108 (R1)

Tests used:
[1] = target: T1, ˜33 kDa protein of COS-1 cells, identified as monkey Annexin A2 (AnxA2; XP-001155637) (monkey); assay: Far Western blot of COS-1 lysates
T1 construct: Denatured on nitrocellulose in Far Western blots; native in co-IP; The ˜33 kDa band was also seen in BSC40 and HuH7 lysates; also called endogenous Annexin A2
Experimental: All of these were detected by the HRP-tagged V5 mAb. (B) The COS-1 cells soluble fraction (supernatant S3; 3 μg protein) was analyzed by Far Western blot and compared to 30 μg protein loads from other subcellular fractions. […] (D) For competition experiments, purified PCSK9-His or CHRD-His were added to the PCSK9-V5 conditioned media used for Far Western blotting. (E) PCSK9-V5-binding requirements were tested by adding 1M NaCl, 10 mg/ml heparin, 1M NaCl+10 mg/ml heparin, or 100 mM EDTA to the PCSK9-V5 conditioned media used for Far Western blotting. Heavy arrows point to the migration position of the ˜33 kDa protein, and the light arrow to that of the ˜45 kDa protein. (−) denotes a control lane where nothing was added to the Far Western blotting media;
Lysates (20 to 30 μg protein), media or purified AnxA2-(His)₆ were heated in reducing or non-reducing Laemmli sample buffer, resolved by SDS-PAGE on 8% glycine gels and electro-transferred onto nitrocellulose membranes (GE Healthcare). Following 1 h incubation in 5% skim milk in Tris-Buffered Saline-0.1% Tween (TBST), membranes where incubated with conditioned media of CHO-K1 cells overexpressing either an empty vector (pIRES-V5), PC5A-V5, CHRD-V5, pIRES-D374Y, PCSK9-V5 or its V5-tagged mutants, or incubated with purified AnxA2-(His)₆ for 3 h at room temperature. […]

[2] = target: B1; assay: Far Western blot of HEK293 lysates
[3] = target: T2, purified biotin-conjugated PCSK9 (UniProt Q8NBP7 31-692, limits assumed, biotin-conjugated (site not stated)); assay: AlphaScreen competition of biotin-PCSK9 binding to His6-LDLR ectodomain
T2 construct: Coated on streptavidin donor beads; also called PCSK9 (AlphaScreen donor beads)
Experimental: AlphaScreen® (Perkin Elmer) streptavidin donor beads were coated with purified biotin-conjugated PCSK9 and AlphaScreen® nickel chelate acceptor beads were coated with purified His6-conjugated LDLR ectodomain. Competition in the AlphaScreen® PCSK9-LDLR interaction assay was measured, in the presence of increasing concentrations of AnxA2-derived peptides, as a reduction of fluorescence.

[4] = target: T3, PCSK9-V5 (full-length human PCSK9 with C-terminal V5 tag) (human, UniProt Q8NBP7 31-692); assay: Far Western blot of HEK293 lysates
T3 construct: Used as conditioned medium of CHO-K1 cells (Far Western, pull-down) or co-expressed in cells (co-IP); The background says PCSK9 is secreted as a prosegment-PCSK9 heterodimer; also called full-length (FL) PCSK9-V5; native PCSK9; not shown: C-terminal V5 tag

[5] = target: T3, PCSK9-V5 (full-length human PCSK9 with …); assay: Far Western blot of lysates of CHO cells overexpressing AnxA1
Experimental: Lysates (20 to 30 μg protein), media or purified AnxA2-(His)₆ were heated in reducing or non-reducing Laemmli sample buffer, resolved by SDS-PAGE on 8% glycine gels and electro-transferred onto nitrocellulose membranes (GE Healthcare). Following 1 h incubation in 5% skim milk in Tris-Buffered Saline-0.1% Tween (TBST), membranes where incubated with conditioned media of CHO-K1 cells overexpressing either an empty vector (pIRES-V5), PC5A-V5, CHRD-V5, pIRES-D374Y, PCSK9-V5 or its V5-tagged mutants, or incubated with purified AnxA2-(His)₆ for 3 h at room temperature. […] For competition experiments, 10 μg of His-tagged PCSK9 or CHRD were added to the PCSK9-V5 media before Far Western blotting. For PCSK9 binding requirements with the ˜33 kDa protein, 1M NaCl, 10 mg/ml heparin, 1M NaCl+10 mg/ml heparin, or 100 mM EDTA were added to the PCSK9-V5 conditioned media used for Far Western blotting.

T1 sequence (P07355 2-339): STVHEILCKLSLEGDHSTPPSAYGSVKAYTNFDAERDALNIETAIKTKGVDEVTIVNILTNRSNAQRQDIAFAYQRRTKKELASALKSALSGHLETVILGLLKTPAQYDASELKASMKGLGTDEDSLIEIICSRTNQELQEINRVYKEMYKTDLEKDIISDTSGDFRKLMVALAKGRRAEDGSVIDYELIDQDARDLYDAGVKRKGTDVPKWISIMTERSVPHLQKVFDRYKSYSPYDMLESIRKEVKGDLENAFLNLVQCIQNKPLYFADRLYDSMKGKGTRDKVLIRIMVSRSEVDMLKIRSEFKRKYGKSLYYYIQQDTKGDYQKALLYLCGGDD

Binder	binding result [4]	other results
CHRD-V5 (C-terminal Cys-His-rich domain of PCSK9, V5-tagged) (other, human, UniProt Q8NBP7 455-692, looked up, domain: CHRD; Conditioned medium of CHO-K1 cells; also called CHRD alone; not shown: C-terminal V5 tag) LFCRTVWSAHSGPTRMATAVARCAPDEELLSCSSFSRSGKRRGERMEAQGGKLVCRAHNAFGGEGVYAIARCCLLPQANCSVHTAPPAEASMGTRVHCHQQGHVLTGCSSHWEVEDLGTHKPPVLRPRGQPNQCVGHREASIHASCCHAPGLECKVKEHGIPAPQEQVTVACEEGWTLTGCSALPGTSHVLGAYAVDNTCVVRSRDVSTTGSTSEGAVTAVAICCRSRHLAQASQELQ		fold binding against full length PCSK9 [1]: 3 fold; binding result [2]: no binding
peptide No 896970 (73-mer AnxA2 R1 peptide extending from amino acids 25 to 97) (also called AnxA2 25-97 peptide) peptide: GSVKAYTNFDAERDALNIETAIKTKGVDEVTIVNILTNRSNAQRQDIAFAYQRRTKKELASALKSALSGHLET		IC50 [3]: 500 nM to 1 µM (2×) and 750 nM
AnxA2 Δ82-88-HA (other) MSTVHEILCKLSLEGDHSTPPSAYGSVKAYTNFDAERDALNIETAIKTKGVDEVTIVNILTNRSNAQRQDIAFAYQRRTKKSALSGHLETVILGLLKTPAQYDASELKASMKGLGTDEDSLIEIICSRTNQELQEINRVYKEMYKTDLEKDIISDTSGDFRKLMVALAKGRRAEDGSVIDYELIDQDARDLYDAGVKRKGTDVPKWISIMTERSVPHLQKVFDRYKSYSPYDMLESIRKEVKGDLENAFLNLVQCIQNKPLYFADRLYDSMKGKGTRDKVLIRIMVSRSEVDMLKIRSEFKRKYGKSLYYYIQQDTKGDYQKALLYLCGGDDYPYDVPDYA	no binding	
AnxA2 ΔR3-HA (deletion of aa 193-268) (other, also called Δ193-268 (R3)) MSTVHEILCKLSLEGDHSTPPSAYGSVKAYTNFDAERDALNIETAIKTKGVDEVTIVNILTNRSNAQRQDIAFAYQRRTKKELASALKSALSGHLETVILGLLKTPAQYDASELKASMKGLGTDEDSLIEIICSRTNQELQEINRVYKEMYKTDLEKDIISDTSGDFRKLMVALAKGRRAEDGSVIDYELIDYFADRLYDSMKGKGTRDKVLIRIMVSRSEVDMLKIRSEFKRKYGKSLYYYIQQDTKGDYQKALLYLCGGDDYPYDVPDYA	binds	
AnxA2 Δ102-108-HA (other) MSTVHEILCKLSLEGDHSTPPSAYGSVKAYTNFDAERDALNIETAIKTKGVDEVTIVNILTNRSNAQRQDIAFAYQRRTKKELASALKSALSGHLETVILGYDASELKASMKGLGTDEDSLIEIICSRTNQELQEINRVYKEMYKTDLEKDIISDTSGDFRKLMVALAKGRRAEDGSVIDYELIDQDARDLYDAGVKRKGTDVPKWISIMTERSVPHLQKVFDRYKSYSPYDMLESIRKEVKGDLENAFLNLVQCIQNKPLYFADRLYDSMKGKGTRDKVLIRIMVSRSEVDMLKIRSEFKRKYGKSLYYYIQQDTKGDYQKALLYLCGGDDYPYDVPDYA	no binding	
human Annexin A1 (AnxA1), untagged (other, UniProt P04083 2-346, looked up, Overexpressed in CHO cells as control) AMVSEFLKQAWFIENEEQEYVQTVKSSKGGPGSAVSPYPTFNPSSDVAALHKAIMVKGVDEATIIDILTKRNNAQRQQIKAAYLQETGKPLDETLKKALTGHLEEVVLALLKTPAQFDADELRAAMKGLGTDEDTLIEILASRTNKEIRDINRVYREELKRDLAKDITSDTSGDFRNALLSLAKGDRSEDFGVNEDLADSDARALYEAGERRKGTDVNVFNTILTTRSYPQLRRVFQKYTKYSKHDMNKVLDLELKGDIEKCLTAIVKCATSKPAFFAEKLHQAMKGVGTRHKALIRIMVSRSEIDMNDIKAFYQKMYGISLCQAILDETKGDYEKILVALCGGN		binding result [5]: no binding
AnxA2 ΔR4-HA (deletion of aa 269-339) (other, also called Δ269-339 (R4)) MSTVHEILCKLSLEGDHSTPPSAYGSVKAYTNFDAERDALNIETAIKTKGVDEVTIVNILTNRSNAQRQDIAFAYQRRTKKELASALKSALSGHLETVILGLLKTPAQYDASELKASMKGLGTDEDSLIEIICSRTNQELQEINRVYKEMYKTDLEKDIISDTSGDFRKLMVALAKGRRAEDGSVIDYELIDQDARDLYDAGVKRKGTDVPKWISIMTERSVPHLQKVFDRYKSYSPYDMLESIRKEVKGDLENAFLNLVQCIQNKPLYPYDVPDYA	binds	
AnxA2 Δ89-101-HA (other) MSTVHEILCKLSLEGDHSTPPSAYGSVKAYTNFDAERDALNIETAIKTKGVDEVTIVNILTNRSNAQRQDIAFAYQRRTKKELASALKLLKTPAQYDASELKASMKGLGTDEDSLIEIICSRTNQELQEINRVYKEMYKTDLEKDIISDTSGDFRKLMVALAKGRRAEDGSVIDYELIDQDARDLYDAGVKRKGTDVPKWISIMTERSVPHLQKVFDRYKSYSPYDMLESIRKEVKGDLENAFLNLVQCIQNKPLYFADRLYDSMKGKGTRDKVLIRIMVSRSEVDMLKIRSEFKRKYGKSLYYYIQQDTKGDYQKALLYLCGGDDYPYDVPDYA	no binding	
B1	no binding	
AnxA2 ΔR2-HA (deletion of aa 109-192) (other, also called Δ109-192 (R2)) MSTVHEILCKLSLEGDHSTPPSAYGSVKAYTNFDAERDALNIETAIKTKGVDEVTIVNILTNRSNAQRQDIAFAYQRRTKKELASALKSALSGHLETVILGLLKTPAQQDARDLYDAGVKRKGTDVPKWISIMTERSVPHLQKVFDRYKSYSPYDMLESIRKEVKGDLENAFLNLVQCIQNKPLYFADRLYDSMKGKGTRDKVLIRIMVSRSEVDMLKIRSEFKRKYGKSLYYYIQQDTKGDYQKALLYLCGGDDYPYDVPDYA	binds	
